Experimental findings from article PMC8809517, “Cofactor-independent RNA editing by a synthetic S-type PPR protein” are described below.

The Kd is a measure of binding affinity in units of concentration. A higher Kd goes with lower affinity.

What all share (test): high-throughput RNA pulldown from lysate on Ni-NTA beads; HRP: 50 mM Tris pH 8, 150 mM NaCl, 1 mM beta-mercaptoethanol, 50 ug/ml BSA, 3 ug/ml yeast RNA, 0.5% heparin; ITC and FP: Tris pH 8, 200 mM KCl, 5% glycerol; MST: 50 mM Tris pH 8, 200 mM NaCl, 1 mM DTT, BSA, heparin, 0.05% Tween 20
Common to all, as to details: tags: N-terminal His-eGFP

Data set [1] addresses T1, GFP-9S library array, motif 4 ND N98T;D124P (synthetic construct, N98T;D124P).
T1 chain: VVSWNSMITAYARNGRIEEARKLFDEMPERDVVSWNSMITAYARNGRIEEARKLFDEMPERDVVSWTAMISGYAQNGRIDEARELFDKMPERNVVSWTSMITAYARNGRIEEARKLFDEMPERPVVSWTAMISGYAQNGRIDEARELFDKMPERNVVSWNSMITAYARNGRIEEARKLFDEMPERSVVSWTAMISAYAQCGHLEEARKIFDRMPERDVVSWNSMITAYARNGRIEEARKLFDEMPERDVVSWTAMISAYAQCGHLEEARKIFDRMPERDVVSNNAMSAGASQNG

Data set [2] has as its target T2, GFP-9S library array, motif 4 ND N98E;D124W (synthetic construct, N98E;D124W).
T2 chain: T1 chain with T98E, P124W

Data set [3] concerns the target T3, GFP-9S library array, motif 4 ND N98Y;D124L (synthetic construct, N98Y;D124L).
T3 chain: T1 chain with T98Y, P124L

In data set [4] the target is T4, GFP-9S library array, motif 4 ND D124H (synthetic construct, D124H).
T4 chain: T1 chain with T98N, P124H

In data set [5] the target is T5, GFP-9S library array, motif 4 ND N98C;D124R (synthetic construct, N98C;D124R).
T5 chain: T1 chain with T98C, P124R

Changes are numbered by the printed parent chain.

AUUAAACGUGA (ssRNA) [IR-rpoA-A]: the Kd came to 107 nM in data set [1] (label: 5' IRDye 800CW); 630 nM in data set [2] (label: 5' IRDye 800CW); 162 nM in data set [3] (label: 5' IRDye 800CW); 285 nM in data set [4] (label: 5' IRDye 800CW); 44.5 nM in data set [5] (label: 5' IRDye 800CW).
Consider AUUACACGUGA (ssRNA) [Cy5-rpoA], for which the Kd came to 92.4 nM in data set [1] (label: 5' Cy5); 213 nM in data set [2] (label: 5' Cy5); 89.7 nM in data set [3] (label: 5' Cy5); 166 nM in data set [4] (label: 5' Cy5); 160 nM in data set [5] (label: 5' Cy5).
In the case of AUUAGACGUGA (ssRNA) [Cy5-rpoA-G], the Kd in data set [1] (label: 5' Cy5) came to 90.3 nM; in data set [2] (label: 5' Cy5), 198 nM; in data set [3] (label: 5' Cy5), 74.6 nM; in data set [4] (label: 5' Cy5), 287 nM; in data set [5] (label: 5' Cy5), 54.9 nM.
On to AUUAUACGUGA (ssRNA) [IR-rpoA-U], for which the Kd in data set [1] (label: 5' IRDye 800CW) is 113 nM; in data set [2] (label: 5' IRDye 800CW), 648 nM; in data set [3] (label: 5' IRDye 800CW), 199 nM; in data set [4] (label: 5' IRDye 800CW), 40.7 nM; in data set [5] (label: 5' IRDye 800CW), 96.8 nM.
